Reference: US20190330358A1 (EUTILEX, published 2019)

T1: Glutathione S-transferase (GST)-tagged AITR (human, UniProt Q9Y5U5 26-139)
T1 construct: also called GST-AITR antigen; GST-AITR analyte; not shown: Glutathione S-transferase (GST) tag
T1 sequence (looked up): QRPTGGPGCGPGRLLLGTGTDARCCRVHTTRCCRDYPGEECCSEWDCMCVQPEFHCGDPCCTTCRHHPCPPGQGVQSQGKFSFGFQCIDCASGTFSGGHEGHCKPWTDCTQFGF

T2: R12 AA 75-139
T2 construct: also called GST fusion protein construct R12 (AITR deletion mutant)
T2 GST fusion protein: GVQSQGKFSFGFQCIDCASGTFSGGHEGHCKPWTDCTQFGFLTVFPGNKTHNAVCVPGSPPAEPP

T3: human AITR expressed on the cell surface (human, UniProt Q9Y5U5 26-241)
T3 sequence (looked up): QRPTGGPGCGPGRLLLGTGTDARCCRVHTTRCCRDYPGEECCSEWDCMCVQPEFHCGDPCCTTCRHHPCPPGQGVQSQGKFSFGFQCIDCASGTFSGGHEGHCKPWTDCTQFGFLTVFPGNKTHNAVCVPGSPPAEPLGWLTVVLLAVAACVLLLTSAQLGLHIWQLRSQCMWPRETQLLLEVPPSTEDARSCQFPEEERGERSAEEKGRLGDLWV


What was measured:
[1] = target: T1, Glutathione S-transferase (GST)-tagged …; assay: KD ratio against parental IRTCA-A, repeated from the SPR of Table 3
[2] = target: T1, Glutathione S-transferase (GST)-tagged …; assay: SPR, Fab against the AITR antigen
[3] = target: T1, Glutathione S-transferase (GST)-tagged …; assay: KD ratio against parental IRTCA-A, repeated from the SPR of Table 3; remark: listed apart in the source
[4] = target: T1, Glutathione S-transferase (GST)-tagged …; assay: SPR, Fab against the AITR antigen; ratio against parental IRTCA-A
[5] = target: T1, Glutathione S-transferase (GST)-tagged …; assay: KD ratio against parental IRTCA-A, repeated from the SPR of Table 3; remark: listed apart in the source
[6] = target: T2, R12 AA 75-139; assay: Western blot and ELISA on GST-AITR deletion constructs
Experimental: Binding of the anti-AITR antibodies IRTCA-A (A27), H1F1, H1F1M69 and H1F1M74 to the GST-fusion proteins R1-R12 was assessed using Western blot analysis, in which the GST-fusion proteins were resolved by 12% SDS-PAGE and subjected to immunoblotting using the antibodies IRTCA-A, H1F1, H1F1M69 and H1F1M74. Anti-Human IgG-HRP (1:5000; Jackson Laboratories, Bar Harbor, Me.) was used as the secondary antibody. Detection of chemiluminescence was obtained by using SuperSignal West Pico Chemiluminescent Substrate (Pierce, Rockford, Ill.).

[7] = target: T1, Glutathione S-transferase (GST)-tagged …; assay: SPR (Biacore T200), antibody captured by anti-human IgG(Fc), GST-AITR analyte 3.12-100 nM
Experimental: This example assesses the ability of mutant anti-AITR antibodies to bind to an AITR antigen recognized by the parent antibody, H1F1. Surface plasmon resonance was used in order to determine the ability of mutant anti-AITR antibodies to bind to AITR.
A Biacore T200 with a CMS sensor chip was run using HBS-EP running buffer at pH 7.4 and 3M magnesium chloride regeneration buffer. Anti-human IgG(Fc) antibodies were immobilized to the CMS chip via amine coupling and 6 minute injections at a flow rate of 5 μL/minute were performed with an immobilization buffer of 10 mM sodium acetate at pH 5.0. The capture antibodies tested were parent antibody H1F1 and mutant antibodies M69 and M74. Glutathione S-transferase (GST)-tagged AITR analyte was injected at concentrations of 3.12, 6.25, 12.5, 25, 50 and 100 nM, with an association time of 150 seconds and a dissociation time of 240 seconds.

[8] = target: T3, human AITR expressed on the cell surface; assay: cell-based or functional assay

Row | KD Ratio [1] [fold] | Ka [2] [M⁻¹] | Kd [2] [nM] | koff [2] [s⁻¹] | kon [2] [M⁻¹ s⁻¹] | KD Ratio [3] [fold] | KD Ratio [4] [fold] | KD Ratio [5] [fold] | binding result [6] | Kd [7] [nM] | secretion of IFN-γ by CD4+ T cells at 0.5 µg, against IRTCA-A [8] [%] | Binder
1 | 44.4 | 3.9e+08 | 2.57 | 0.000334 | 130000 | 44.4 | 44.4 | 44.4 | – | – | ≥ 200 | IRTCA-A15 (Clone H1F1) Fab (Fab, V domains shown) VH: QVQLVQSGTQVKMPGASVKVSCKASGYTFDDYGIGWVRQAPGQGLEWMGWISPYTHRTNSSPKLQDRVTMTTDTSTSTAYMELRSLRSDDTAVYYCARDGTYYDFWSGYFDNNAFDIWGQGTLVTVSS VL: QSVVTQPPSVSAAPGQKVTISCSGSTSNIGNNYVSWYQQLPGTAPKLLIYDNYKRPSGIPDRFSGSKSGTSATLGITGLRTGDEADYFCGTWDSSLNAWVFGGGTKLTVL
2 | – | – | – | – | – | – | – | – | no binding | 0.789 | – | H1F1 anti-AITR monoclonal antibody (antibody, V domains shown, Bivalent antibody captured by anti-human IgG(Fc); constant regions not specified for this antibody; also called parent antibody H1F1) VH: QVQLVQSGTQVKMPGASVKVSCKASGYTFDDYGIGWVRQAPGQGLEWMGWISPYTHRTNSSPKLQDRVTMTTDTSTSTAYMELRSLRSDDTAVYYCARDGTYYDFWSGYFDNNAFDIWGQGTLVTVSS VL: QSVVTQPPSVSAAPGQKVTISCSGSTSNIGNNYVSWYQQLPGTAPKLLIYDNYKRPSGIPDRFSGSKSGTSATLGITGLRTGDEADYFCGTWDSSLNAWVFGGGTKLTVL
3 | 30.1 | 2.64e+08 | 3.79 | 0.00027 | 71100 | 30.1 | 30.1 | 30.1 | – | – | ≥ 200 | IRTCA-A14 (Clone H2F8) Fab (Fab, V domains shown) VH: QVQLVQSGTQVKMPGASVKVSCKASGYTFDDYGIGWVRQAPGQGLEWMGWISPYTHRTNSSPKLQDRVTMTTDTSTSTAYMELRSLRSDDTAVYYCARDGTYYDFWSGYFDTAAFDIWGQGTLVTVSS VL: QSVVTQPPSVSAAPGQKVTISCSGSTSNIGNNYVSWYQQLPGTAPKLLIYDNYKRPSGIPDRFSGSKSGTSATLGITGLRTGDEADYFCGTWDSSLNAWVFGGGTKLTVL

Second part, the binder before the results:

Row | Binder | KD Ratio [1] [fold] | Ka [2] [M⁻¹] | Kd [2] [nM] | koff [2] [s⁻¹] | kon [2] [M⁻¹ s⁻¹] | KD Ratio [3] [fold] | KD Ratio [4] [fold] | KD Ratio [5] [fold] | binding result [6] | Kd [7] [nM] | secretion of IFN-γ by CD4+ T cells at 0.5 µg, against IRTCA-A [8] [%]
4 | Parental IRTCA-A Fab (Fab, V domains shown) VH: QVQLVQSGTQVKMPGASVKVSCKASGYTFDDYGIGWVRQAPGQGLEWMGWISPYTHRTNSSPKLQDRVTMTTDTSTSTAYMELRSLRSDDTAVYYCARDGTYYDFWSGYFDNGAFDIWGQGTLVTVSS VL: QSVVTQPPSVSAAPGQKVTISCSGSTSNIGNNYVSWYQQLPGTAPKLLIYDNYKRPSGIPDRFSGSKSGTSATLGITGLRTGDEADYFCGTWDSSLNAWVFGGGTKLTVL | 1 | 8.74e+06 | 114 | 0.00134 | 11700 | 1 | 1 | 1 | – | – | –
5 | H1F1.M69 (H1F1.H2.J1/H1F1.L3.J1) (antibody, V domains shown, Made in Expi293 cells from HC and LC DNA) VH: QVQLVQSGAQVKMPGESLKVSCKASGYTFTDYGMGWVRQAPGQGLEWMGWISPYTGRTNSSDKFQGRVTMTRDTSTSTAYMELRSLRSEDTAVYYCARDGTYYDFWSGYFDNNAFDIWGQGTLVTVSS VL: QSVVTQPPSVSGAPGQRVTISCSGSTSNIGNNYVSWYQQLPGTAPKLLIYDNYKRPSGVPDRFSGSKSGTSASLAITGLQTEDEADYYCGTWDSSLNAWVFGGGTKLTVL | – | – | – | – | – | – | – | – | no binding | 0.657 | –
6 | IRTCA-A (A27) anti-AITR monoclonal antibody (antibody, V domains shown, Monoclonal antibody form, detected with anti-human IgG-HRP; constant regions not specified for this antibody) VH: QVQLVQSGTQVKMPGASVKVSCKASGYTFDDYGIGWVRQAPGQGLEWMGWISPYTHRTNSSPKLQDRVTMTTDTSTSTAYMELRSLRSDDTAVYYCARDGTYYDFWSGYFDNGAFDIWGQGTLVTVSS VL: QSVVTQPPSVSAAPGQKVTISCSGSTSNIGNNYVSWYQQLPGTAPKLLIYDNYKRPSGIPDRFSGSKSGTSATLGITGLRTGDEADYFCGTWDSSLNAWVFGGGTKLTVL | – | – | – | – | – | – | – | – | no binding | – | –
7 | IRTCA-A12 (Clone H2A10) Fab (Fab, V domains shown) VH: QVQLVQSGTQVKMPGASVKVSCKASGYTFDDYGIGWVRQAPGQGLEWMGWISPYTHRTNSSPKLQDRVTMTTDTSTSTAYMELRSLRSDDTAVYYCARDGTYYDFWSGYFDNATFDFWGQGTLVTVSS VL: QSVVTQPPSVSAAPGQKVTISCSGSTSNIGNNYVSWYQQLPGTAPKLLIYDNYKRPSGIPDRFSGSKSGTSATLGITGLRTGDEADYFCGTWDSSLNAWVFGGGTKLTVL | 27.6 | 2.42e+08 | 4.13 | 0.000288 | 69700 | 27.6 | 27.6 | 27.6 | – | – | ≥ 200
8 | IRTCA-A1 (Clone L1E9) Fab (Fab, V domains shown) VH: QVQLVQSGTQVKMPGASVKVSCKASGYTFDDYGIGWVRQAPGQGLEWMGWISPYTHRTNSSPKLQDRVTMTTDTSTSTAYMELRSLRSDDTAVYYCARDGTYYDFWSGYFDNGAFDIWGQGTLVTVSS VL: QSVVTQPPSVSAAPGQKVTISCSGSTSNIGNNYVSWYQQLPGTAPKLLIYDNYKRPSGIPDRFSGSKSGTSATLGITGLRTGDEADYFCGSWESGSNAYKFGGGTKLTVL | 8.2 | 7.18e+07 | 13.9 | 0.000412 | 29600 | 8.2 | 8.2 | 8.2 | – | – | –
9 | H1F1.M74 (H1F1.H8/H1F1.L3.J2) (antibody, V domains shown, Made in Expi293 cells from HC and LC DNA) VH: QVQLVQSGAQVKMPGESLKVSCKASGYTFDDYGMGWVRQAPGQCLEWMGWISPYTGRTNSSDKFQGRVTMTRDTSTSTAYMELRSLRSEDTAVYYCARDGTYYDFWSGYFDNNAFDIWGQGTLVTVSS VL: QSVVTQPPSVSGAPGQRVTISCSGSTSNIGNNYVSWYQQLPGTAPKLLIYDNYKRPSGVPDRFSGSKSGTSASLAITGLQSEDEADYYCGSWESGSNAYKFGGGTKLTVL | – | – | – | – | – | – | – | – | – | 0.966 | –
10 | IRTCA-A10 (Clone H1A10) Fab (Fab, V domains shown) VH: QVQLVQSGTQVKMPGASVKVSCKASGYTFDDYGIGWVRQAPGQGLEWMGWISPYTHRTNSSPKLQDRVTMTTDTSTSTAYMELRSLRSDDTAVYYCARDGTYYDFWSGYFDNAAFDSWGQGTLVTVSS VL: QSVVTQPPSVSAAPGQKVTISCSGSTSNIGNNYVSWYQQLPGTAPKLLIYDNYKRPSGIPDRFSGSKSGTSATLGITGLRTGDEADYFCGTWDSSLNAWVFGGGTKLTVL | 8.4 | 7.34e+07 | 13.6 | 0.000565 | 41500 | 8.4 | 8.38 | 8.4 | – | – | –
